The values that follow come from patent publication US11203743B2, “Method for producing long-chain glycosylated genistein” (Jiangnan University, priority 2019, dated 2021).

This assay can be described thus: Specificity of different cyclodextrin glucosyltransferases to glycosylated genistein products (maltodextrin donor, genistein receptor, HPLC). The assay is classed as biochemical. To be noted: for content of long-chain glycosylated genistein in the reaction solution / content of short-chain glycosylated genistein in the reaction solution / ratio of the molar content of long-chain glycosylated genistein to the molar content of total glycosylated genistein in the reaction solution / ratio of the molar content of short-chain glycosylated genistein to the molar content of total glycosylated genistein in the reaction solution: 40° C., pH 6.5, 120 rpm, 20-24 hours; for specificity to long-chain glycosylated genistein products in comparison with wild type: in words, from Tables 1 to 2; for increase of the yield of long-chain glycosylated genistein compared with wild-type cyclodextrin glucosyltransferase: versus wild type. The method, then: Genistein (purchased from Sigma) was dissolved in dimethyl sulfoxide (DMSO) to prepare a genistein solution with a final concentration of 7.5 g/L; maltodextrin (purchased from Shanghai Sangon Biotech Co., Ltd.) was dissolved in a PBS buffer (50 mM, pH 6.5) to prepare a maltodextrin solution with a final concentration of 40 g/L; the freeze-fried pure enzymes of the mutants A156V/L174P, A156V/L174P/166Y, A156V/L174P/A166V, A156V/L174P/A166G, A156V/L174P/A166K, A156S, A156L and L174M obtained in Example 1 were dissolved in a PBS buffer (50 mM, pH 6.5) separately to prepare a CGTase enzyme solution with a final concentration of 15 U/L; 300 μL of the genistein solution, 500 μL of the maltodextrin solution and 200 μL of the CGTase enzyme solution were taken separately, mixed in a 2 mL vial with a lid and placed in a shaker for slow shaking at 40° C. and 120 rpm for 20-24 hours to obtain a reaction solution.
The molar content of short-chain glycosylated genistein (here the short-chain glycosylated genistein was a mixture of monoglycosylated genistein, diglycosylated genistein and triglycosylated genistein) and long-chain glycosylated genistein (here the long-chain glycosylated genistein was a mixture of tetraglycosylated genistein, pentaglycosylated genistein and hexaglycosylated genistein) in the reaction solution was detected by HPLC, the ratio (%) of the molar content of short-chain glycosylated genistein and long-chain glycosylated genistein in the reaction solution to the molar content of total glycosylated genistein in the reaction solution and the content (g/L) of short-chain glycosylated genistein and long-chain glycosylated genistein in the reaction solution were calculated, and detection results were shown in Tables 1 to 2. A method for detecting the ratio (%) of the content of short-chain glycosylated genistein and long-chain glycosylated genistein in the reaction solution to the content of total glycosylated genistein in the reaction solution by HPLC included that the reaction solution was filtered through a 0.22 μm filter membrane, and an Amethyst C18-H column (4.6*250 mm, Sepax, America) was used for detection (see Table 3 for specific detection conditions). The content of long-chain glycosylated genistein=the molar content of hexaglycosylated genistein*the molecular weight of hexaglycosylated genistein+ the molar content of pentaglycosylated genistein*the molecular weight of pentaglycosylated genistein+ the molar content of tetraglycosylated genistein*the molecular weight of tetraglycosylated genistein, and the content of short-chain glycosylated genistein=the molar content of triglycosylated genistein*the molecular weight of triglycosylated genistein+ the molar content of diglycosylated genistein*the molecular weight of diglycosylated genistein+ the molar content of monoglycosylated genistein*the molecular weight of monoglycosylated genistein.

B1: A156V/L174P: cyclodextrin glucosyltransferase mutant: alanine 156 into valine and leucine 174 into proline of SEQ ID NO: 1 (protein)
chain: SPDTSVDNKVNFSTDVIYQIVTDRFADGDRTNNPAGDAFSGDRSNLKLYFGGDWQGIIDKINDGYLTGMGVTALWISQPVENITSVIKYSGVNNTSYHGYWARDFKQTNDAFGDFADFQNLIDTAHAHNIKVVIDFAPNHTSPADRDNPGFAENGVLYDNGSLLGAYSNDTAGPFHHNGGTDFSTIEDGIYKNLYDLADINHNNNAMDAYFKSAIDLWLGMGVDGIRFDAVKHMPFGWQKSFVSSIYGGDHPVFTFGEWYLGADQTDGDNIKFANESGMNLLDFEYAQEVREVFRDKTETMKDLYEVLASTESQYDYINNMVTFIDNHDMDRFQVAGSGTRATEQALALTLTSRGVPAIYYGTEQYMTGDGDPNNRAMMTSFNTGTTAYKVIQALAPLRKSNPAIAYGTTTERWVNNDVLIIERKFGSSAALVAINRNSSAAYPISGLLSSLPAGTYSDVLNGLLNGNSITVGSGGAVTNFTLAAGGTAVWQYTAPETSPAIGNVGPTMGQPGNIVTIDGRGFGGTAGTVYFGTTAVTGSGIVSWEDTQIKAVIPKVAAGKTGVSVKTSSGTASNTFKSFNVLTGDQVTVRFLVNQANTNYGTNVYLVGNAAELGSWDPNKAIGPMYNQVIAKYPSWYYDVSVPAGTKLDFKFIKKGGGTVTWEGGGNHTYTTPASGVGTVTVDWQN
modifications: Translated from synthetic DNA
Consider B1, for which the “content of long-chain glycosylated genistein in the reaction solution” value is on record as 5.2 g/L, the “content of short-chain glycosylated genistein in the reaction solution” value is 9.7 g/L, the “ratio of the molar content of long-chain glycosylated genistein to the molar content of total glycosylated genistein in the reaction solution” value is given as 25% and the “ratio of the molar content of short-chain glycosylated genistein to the molar content of total glycosylated genistein in the reaction solution” value is 75%. Besides, the “specificity to long-chain glycosylated genistein products in comparison with wild type” value (“specificity” below) was “significantly improved” and the “increase of the yield of long-chain glycosylated genistein compared with wild-type cyclodextrin glucosyltransferase” value (“increase” for short) turned out to be 62.5%.

B2: A156V/L174P/A166G: cyclodextrin glucosyltransferase mutant: A156V, L174P and alanine 166 into glycine of SEQ ID NO: 1 (protein)
chain: SPDTSVDNKVNFSTDVIYQIVTDRFADGDRTNNPAGDAFSGDRSNLKLYFGGDWQGIIDKINDGYLTGMGVTALWISQPVENITSVIKYSGVNNTSYHGYWARDFKQTNDAFGDFADFQNLIDTAHAHNIKVVIDFAPNHTSPADRDNPGFAENGVLYDNGSLLGGYSNDTAGPFHHNGGTDFSTIEDGIYKNLYDLADINHNNNAMDAYFKSAIDLWLGMGVDGIRFDAVKHMPFGWQKSFVSSIYGGDHPVFTFGEWYLGADQTDGDNIKFANESGMNLLDFEYAQEVREVFRDKTETMKDLYEVLASTESQYDYINNMVTFIDNHDMDRFQVAGSGTRATEQALALTLTSRGVPAIYYGTEQYMTGDGDPNNRAMMTSFNTGTTAYKVIQALAPLRKSNPAIAYGTTTERWVNNDVLIIERKFGSSAALVAINRNSSAAYPISGLLSSLPAGTYSDVLNGLLNGNSITVGSGGAVTNFTLAAGGTAVWQYTAPETSPAIGNVGPTMGQPGNIVTIDGRGFGGTAGTVYFGTTAVTGSGIVSWEDTQIKAVIPKVAAGKTGVSVKTSSGTASNTFKSFNVLTGDQVTVRFLVNQANTNYGTNVYLVGNAAELGSWDPNKAIGPMYNQVIAKYPSWYYDVSVPAGTKLDFKFIKKGGGTVTWEGGGNHTYTTPASGVGTVTVDWQN
modifications: Translated from synthetic DNA
For the molecule B2, the “content of long-chain glycosylated genistein in the reaction solution” value is 4.4 g/L, the “content of short-chain glycosylated genistein in the reaction solution” value came out at 10.9 g/L, the “ratio of the molar content of long-chain glycosylated genistein to the molar content of total glycosylated genistein in the reaction solution” value is given as 20% and the “ratio of the molar content of short-chain glycosylated genistein to the molar content of total glycosylated genistein in the reaction solution” value is 80%. Moreover, the “specificity” value was “significantly improved”.

B3: A156V/L174P/A166K: cyclodextrin glucosyltransferase mutant: A156V, L174P and alanine 166 into lysine of SEQ ID NO: 1 (protein)
chain: SPDTSVDNKVNFSTDVIYQIVTDRFADGDRTNNPAGDAFSGDRSNLKLYFGGDWQGIIDKINDGYLTGMGVTALWISQPVENITSVIKYSGVNNTSYHGYWARDFKQTNDAFGDFADFQNLIDTAHAHNIKVVIDFAPNHTSPADRDNPGFAENGVLYDNGSLLGKYSNDTAGPFHHNGGTDFSTIEDGIYKNLYDLADINHNNNAMDAYFKSAIDLWLGMGVDGIRFDAVKHMPFGWQKSFVSSIYGGDHPVFTFGEWYLGADQTDGDNIKFANESGMNLLDFEYAQEVREVFRDKTETMKDLYEVLASTESQYDYINNMVTFIDNHDMDRFQVAGSGTRATEQALALTLTSRGVPAIYYGTEQYMTGDGDPNNRAMMTSFNTGTTAYKVIQALAPLRKSNPAIAYGTTTERWVNNDVLIIERKFGSSAALVAINRNSSAAYPISGLLSSLPAGTYSDVLNGLLNGNSITVGSGGAVTNFTLAAGGTAVWQYTAPETSPAIGNVGPTMGQPGNIVTIDGRGFGGTAGTVYFGTTAVTGSGIVSWEDTQIKAVIPKVAAGKTGVSVKTSSGTASNTFKSFNVLTGDQVTVRFLVNQANTNYGTNVYLVGNAAELGSWDPNKAIGPMYNQVIAKYPSWYYDVSVPAGTKLDFKFIKKGGGTVTWEGGGNHTYTTPASGVGTVTVDWQN
modifications: Translated from synthetic DNA
In the case of B3, the “content of long-chain glycosylated genistein in the reaction solution” value came to 5.1 g/L, the “content of short-chain glycosylated genistein in the reaction solution” value came to 10.1 g/L, the “ratio of the molar content of long-chain glycosylated genistein to the molar content of total glycosylated genistein in the reaction solution” value was 24% and the “ratio of the molar content of short-chain glycosylated genistein to the molar content of total glycosylated genistein in the reaction solution” value was 76%. In addition, the “specificity” value is reported as “significantly improved” and the “increase” value was determined as 59.4%.

B4: A156V/L174P/A166V: cyclodextrin glucosyltransferase mutant: A156V, L174P and alanine 166 into valine of SEQ ID NO: 1 (protein)
chain: SPDTSVDNKVNFSTDVIYQIVTDRFADGDRTNNPAGDAFSGDRSNLKLYFGGDWQGIIDKINDGYLTGMGVTALWISQPVENITSVIKYSGVNNTSYHGYWARDFKQTNDAFGDFADFQNLIDTAHAHNIKVVIDFAPNHTSPADRDNPGFAENGVLYDNGSLLGVYSNDTAGPFHHNGGTDFSTIEDGIYKNLYDLADINHNNNAMDAYFKSAIDLWLGMGVDGIRFDAVKHMPFGWQKSFVSSIYGGDHPVFTFGEWYLGADQTDGDNIKFANESGMNLLDFEYAQEVREVFRDKTETMKDLYEVLASTESQYDYINNMVTFIDNHDMDRFQVAGSGTRATEQALALTLTSRGVPAIYYGTEQYMTGDGDPNNRAMMTSFNTGTTAYKVIQALAPLRKSNPAIAYGTTTERWVNNDVLIIERKFGSSAALVAINRNSSAAYPISGLLSSLPAGTYSDVLNGLLNGNSITVGSGGAVTNFTLAAGGTAVWQYTAPETSPAIGNVGPTMGQPGNIVTIDGRGFGGTAGTVYFGTTAVTGSGIVSWEDTQIKAVIPKVAAGKTGVSVKTSSGTASNTFKSFNVLTGDQVTVRFLVNQANTNYGTNVYLVGNAAELGSWDPNKAIGPMYNQVIAKYPSWYYDVSVPAGTKLDFKFIKKGGGTVTWEGGGNHTYTTPASGVGTVTVDWQN
modifications: Translated from synthetic DNA
Consider B4, for which the “content of long-chain glycosylated genistein in the reaction solution” value stood at 6.8 g/L, the “content of short-chain glycosylated genistein in the reaction solution” value stood at 9.5 g/L, the “ratio of the molar content of long-chain glycosylated genistein to the molar content of total glycosylated genistein in the reaction solution” value came out at 29% and the “ratio of the molar content of short-chain glycosylated genistein to the molar content of total glycosylated genistein in the reaction solution” value stood at 71%. Besides, the “specificity” value is “significantly improved” and the “increase” value is 112.5%.
